# Where “and” joins values, the source holds several entries; their conditions need not be identical. Identical values can stand only once.
# T1: human cathepsin G (Homo sapiens, UniProt P08311)
# T1 construct: purchased Calbiochem or Athens Research and Technology
# T1 sequence (P08311 21-244): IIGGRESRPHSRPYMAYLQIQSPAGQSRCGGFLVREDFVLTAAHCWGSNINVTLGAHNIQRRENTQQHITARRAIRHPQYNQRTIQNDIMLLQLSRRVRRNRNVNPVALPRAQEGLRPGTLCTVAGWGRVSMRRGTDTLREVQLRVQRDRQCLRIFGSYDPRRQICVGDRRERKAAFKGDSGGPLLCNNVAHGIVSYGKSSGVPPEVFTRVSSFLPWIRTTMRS
# B1: Spi2A: murine Spi2A polypeptide, SEQ ID NO:2; purified as C-terminal 3×FLAG protein or expressed from MIGR1 retrovirus in cells and bone-marrow chimeras (protein, listed as Mus musculus)
# chain: MAGVSPAVFGCPDVTLGRNTAVREVQENVTSVDSLTLVSSNTDFAFSLYRKLVLKNPDENVVFSPFSICTALALLSLGAKSNTLKEILEGLKFNLTETPEPDIHQGFRYLLDLLSQPGNQVQISTGSALFIEKHLQILAEFKEKARALYQAEAFTADFQQPLKATKLINDYVSNHTQGKIKELISGLKESTLMVLVNYIYFKGKWKNPFDPNDTFKSEFYLDEKRSVIVSMMKTGYLTTPYFRDEELSCTVVELKYTGNASAMFILPDQGRMQQVEASLQPETLRKWKNSLKPRMIHELRLPKFSISTDYSLEHILPELGIREVFSTHADLSAITGTKDLRVSQVVHKAVLDVAEKGTEAAAATGMAGVGCCAVFDFLEIFFNRPFLMIISDTKAHIALFMAKVTNPERSTNFPNGEGASSQRLESKRLCFGDPLCLIGQ
# modifications: C-terminal 3xFLAG tag
# notes: purified as C-terminal 3×FLAG protein or expressed from MIGR1 retrovirus in cells and bone-marrow chimeras
# Columns and labels:
# cathepsin B [1] = biological target: T2, cathepsin B (Homo sapiens, UniProt P07858); assay: Protease specificity of Spi2A: cathepsin B; type: biochemical; conditions: protease 20 nM, Spi2A 200 nM, 1 h at 37° C; FIG. 6B
# T2 construct: purchased Calbiochem or Athens Research and Technology
# Protocol: (§1) Protease specificity of Spi2A. RelA^−/− MEFs were transduced with retrovirus encoding Spi2A with a C-terminal 3×FLAG epitope tag and Spi2A-3×FLAG purified using a method described previously (Cooley et al., 1998). Briefly, cells (3×10^9) were lysed and Spi2A-3×FLAG (75 μg) purified by batch Q-Fast Flow ion-exchange chromatography (Pharmacia Biotech) after elution at 160-220 mM NaCl followed by anti-FLAG antibody columns, performed according to manufacturer's instructions (Sigma-Aldrich). Spi2A-3×FLAG was dialysed into PBS and stored as aliquots at −80° C. until needed.
# (§2) Proteases were purchases from the manufacturers (Calbiochem or Athens Research and Technology) except granzymes A and B which were purified as described (Hanna et al., 1993) and cathespin V and K, which were purified as described (Bromme et al., 1999; Linnevers et al., 1997). Proteases (20 nM) were incubated in the appropriate assay buffer with Spi2A at 200 nM (at least 10-fold excess of inhibitor to maintain pseudo-first order conditions) for 1 h at 37° C. Control samples included only the enzyme, without the inhibitor. At the end of 1 h protease activity was assayed. […] Substrate hydrolysis was measured in a fluorescence microtiter plate reader (Spectramax Gemini XS, Molecular Devices). Percentage inhibition was calculated from the residual enzyme activity compared to no Spi2A controls. […]
# human cathepsin G = biological target: T1, human cathepsin G; assay: Protease specificity of Spi2A: cathepsin G; type: biochemical; conditions: protease 20 nM, Spi2A 200 nM, 1 h at 37° C; FIG. 6B
# Protocol: as §1, §2
# cathepsin B [2] = biological target: T2, cathepsin B; assay: Kinetics of cathepsin B inhibition by Spi2A; type: biochemical
# human cathepsin V = biological target: T3, human cathepsin V (Homo sapiens, UniProt O60911); assay: Protease specificity of Spi2A: cathepsin V; type: biochemical; conditions: protease 20 nM, Spi2A 200 nM, 1 h at 37° C; FIG. 6B
# T3 construct: made in house
# Protocol: as §1, §2
# RelA^−/− MEFs [3] = assay: Survival assay, sphingosine, RelA^−/− MEFs; type: cell-based, mouse; conditions: sphingosine 10-50 μM, 2 h; FIG. 7B
# Protocol: Survival Assays. Although RelA^−/− MEFs are markedly more sensitive to TNF-α compared to RelA^+/+ MEFs, low levels of CHX (0.1 μg/ml) were used in the survival assays. This was to suppress any protective activity of constitutively active non-RelA NF-κB molecules that are present in RelA^−/− MEFs (FIG. 4). Thus, RelA^−/− MEFs were treated with CHX and TNF-α (R&D) and the number of live GFP-positive adherent cells was counted by flow cytometry after 16 h, if not indicated otherwise. Live cells were defined as those that excluded propidium iodide (PI-negative) and had the appropriate size, as defined by forward and side scatter characteristics (Coligan et al., 1995). For RelA^+/+ MEFs, TNF-α-cytotoxicity was determined after 16 h with CHX (10 μg/ml), if not indicated otherwise. Cathepsin B activity was inhibited by a 1 h pre-treatment of MEFs with CA-074 Me (30 μM) (Peptide Institute). […] RelA^−/− MEFs were treated with (10-50 μM) sphingosine (Calbiochem) and the number of live GFP-positive adherent cells was counted by flow cytometry after 2 h.
# [4] = tested on: anti-LCMV memory CD8 cells; conditions: mouse, in vivo
# LCMV-specific CD8 cells = conditions: mouse, in vivo
# RelA^−/− MEFs [5] = assay: Mitochondrial membrane potential (JC-1), RelA^−/− MEFs; type: cell-based, mouse; conditions: TNF-α 0.2 ng/ml, CHX 0.1 μg/ml; FIG. 5C
# Protocol: Death effector assays. Death effector pathways were induced in […] MEFs by treatment TNF-α (0.2 ng/ml) and CHX (0.1 μg/ml). Assays for executioner proteases (caspases and cathepsin B) were performed on crude cytoplasmic extracts (Stegh et al., 2000). Briefly, MEFs (10^6) were lysed in 10 mM Tris-Cl, pH 7.5, 100 mM NaCl, 1 mM EDTA, 0.01% Triton X-100 (50 μl) for 30 min on ice then centrifuged at 15,000 g for 30 min at 4° C. and the supernatant recovered. Protein concentration was determined by Lowry assay (DC-protein assay kit, Biorad). Western immunoblots were performed on crude cytosolic extracts (50 μg per lane) using standard protocols and probed with the following antibodies: goat anti-mouse Bid antiserum (1 μg/ml; R&D systems), rabbit anti-human caspase 9 antiserum (2 μg/ml; Cell Signaling Technology), rabbit anti-human caspase 3 antiserum (2 μg/ml; Cell Signaling Technology), mouse anti-human caspase 8 monoclonal antibody clone 12F5 (1 μg/ml; Axxora). […]
# Mitochondrial membrane potential and ROS production were measured using the fluorescent dyes JC-1 (3 μg/ml) and dihydroethidium (HE) (5 μM)(Molecular Probes) respectively, and flow cytometry according to the manufacturer's instructions.
# T3 sequence (O60911 114-334): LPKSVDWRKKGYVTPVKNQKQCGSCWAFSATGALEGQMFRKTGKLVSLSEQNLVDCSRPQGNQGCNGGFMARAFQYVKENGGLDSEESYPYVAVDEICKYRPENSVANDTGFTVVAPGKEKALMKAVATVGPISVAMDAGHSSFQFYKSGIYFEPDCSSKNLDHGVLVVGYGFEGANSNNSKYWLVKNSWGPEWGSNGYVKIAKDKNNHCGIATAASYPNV
molecule,measurement,setting,value
B1,Inhibition of protease by Spi2A (percentage inhibition),cathepsin B [1],"extended to all of the lysosomal, papain-like proteases that were examined"
same,Inhibition of protease by Spi2A (percentage inhibition),human cathepsin G,inhibited
same,second-order association rate constant for the inhibition of cathepsin B,"cathepsin B [2]; 20 nM cathepsin B, 5 μM (Z-FR)2-R110, 200 or 400 nM Spi2A, pseudo-first order conditions",> 10^6 M^−1 s^−1
same,Inhibition of cathepsin B within the dead time of the measurement,"cathepsin B [2]; dead time ˜30 s, 200 or 400 nM Spi2A",completely inhibited
same,Inhibition of protease by Spi2A (percentage inhibition),human cathepsin V,"extended to all of the lysosomal, papain-like proteases that were examined"
same,Protection from death after treatment with sphingosine,RelA^−/− MEFs [3],could protect
same,Number of anti-LCMV CD8 cells per spleen GFP^−,[4],5.07 ± 0.68 (n = 3) ×10^−5 and 2.79 ± 0.12 (n = 6) ×10^−5
same,Percentage and absolute number of anti-LCMV memory CD8 cells (IFN-γ^+ CD8^+) in the spleen,[4],increased
same,Anti-LCMV CD8 cells as a percentage of the total GFP^+ CD8^+ cell population in PBLs,LCMV-specific CD8 cells,significantly elevated
same,Level of anti-LCMV CD8 cells during the contraction phase,LCMV-specific CD8 cells,considerable increase
same,Level of anti-LCMV CD8 cells during the initial expansion phase,LCMV-specific CD8 cells,did not increase
same,Level of anti-LCMV CD8 cells during the memory phase,LCMV-specific CD8 cells,elevated level
same,Residual level of anti-LCMV CD8 cells (level 56 days after infection as percentage of the maximum on day 14),LCMV-specific CD8 cells,significantly (p<0.001) higher
same,Residual level of anti-LCMV CD8 cells (level after 98 days as percentage of the maximum after 14 days),LCMV-specific CD8 cells,significantly higher
same,Time for which the elevated memory-phase level was stable,LCMV-specific CD8 cells,at least 14 weeks
same,mitochondrial depolarization,RelA^−/− MEFs [5],virtually abrogated

# Source: patent publication US20090324700A1, “METHODS AND COMPOSITIONS FOR THE INHIBITION OF CATHEPSINS” (priority 2003, published 2009)
